Laboratory results published in the domain aggregation screens of Martell et al. (2025).

Experiment: soluble fraction after stress (log2 fold change); higher = more stays soluble; pooled small domains, quantitative proteomics
Settings: stress: 75 degC
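Also: 20 min heating vs room temperature control held 20 min.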

Sequence: HMDNFQFIGYSQQQGQIAVAWIKSLDNGRLVRVEVSDSLEGWRVSDISAQGVNLTKGQQWLMLKRL
- soluble fraction (log2): -1.74

Sequence: HMDNIGKTLGQNQTRQYKVAYAEAAKLPAIIMGLVPLPKPPVVDERLRSLYVTATPEQHRQIETLMNRI
- soluble fraction (log2): -0.114

Sequence: HMDNITIYSSNGKIYVNAIGGEKIELFNITGQKVAEKVAVSGINVLDAVYDITLVKVGSKVVKVV
- soluble fraction (log2): -2.36

Sequence: HMDNLATRILKELNNNDGFLPLSDKSQPEAIYQAFGISKKSYKTAIGTLYKKRLITISENGIQLTD
- soluble fraction (log2): -0.67

Sequence: HMDNLSQMQERILEFIIRSKDQSGYTPSLREIGDEVGLKAVSSVKYQLEQLKDAHYISFDANTARAIRVLI
- soluble fraction (log2): -1.68

Sequence: HMDNMFVEERQALIYEELQSNGRVRVKDLSKKFNVSEDLIRKDLNVLEKEGKLRKIYGGAVLAK
- soluble fraction (log2): 0.237

Sequence: HMDNNNQAAFMGALNSLKEYAKVNGNIVTKQDVESYFKDLGLDDSKYQMITGYLLANDITVKG
- soluble fraction (log2): 0.181

Sequence: HMDNQYGVYSDEKNNVEIHWKRIDHPSVAKDHLDIEAYQNGKRVDINNQQADHYRYLINQEMNE
- soluble fraction (log2): 0.201

Sequence: HMDPAFAQHHDRALSILHSRGYEVHDSDTDLHWARPVLEFEAYKGSLEYKIVMSYPDLNIIEERVD
- soluble fraction (log2): -0.906

Sequence: HMDPASYEARLSTLREQGAQQLDPVRFQYLATLAQRLPTQTPGVALILANKLRAGLSDYEQRLSEAGS
- soluble fraction (log2): -0.0569

Sequence: HMDPDAIVSKGQLGALNNAIGRFIAQGGSQTVVDKGIAKRNPNAKKPADLTNSQAESLEAAILKILNG
- soluble fraction (log2): 0.73

Sequence: HMDPLGALSDRERQVLALIGQGHGLQAIADQLGVSYKTAANTSSALKKKLGVDGINGLMKFALDSG
- soluble fraction (log2): -0.443

Sequence: HMDPLGGFTKGDVDMDGRVAVNDAVMVLKNAIKLMELDTQQLMLADADNDGKITVNDAVMILKKAIKLID
- soluble fraction (log2): -0.149

Sequence: HMDPTLFRLNILEGLGLEKKNLTSEEQEQLRFLYEHFSMKEILMTIDYIKKLNLEKSIVNLYRLMQHP
- soluble fraction (log2): -0.823

Sequence: HMDPTVEENKLNPRDLLIIQRVKEGRTNKEIAEELNVAEITVKKQLSSLYQRYKVHNRNQLLLALD
- soluble fraction (log2): -0.285

Sequence: HMDPVQLEVIKKLNLLNAQKPKDIYALRDVLSEMFPQSDIRLLLKELLDKGYIYWNGHEVIYSHEMF
- soluble fraction (log2): -0.272

Sequence: HMDPYEYQLELEKLINNATELNKKYNYDPLKDKILAADAVKNSLETYVLQNYIVALENEIKQTLNQYQIL
- soluble fraction (log2): -0.685

Sequence: HMDQNDYMLTRIRNGQMRNKVSVSMPASKIKSAIAAVLKDEGYIENFALNDSSGKPSLIVNLKYYAGQPV
- soluble fraction (log2): -0.0681

Sequence: HMDQPVIDVREFGARGDGKQDDAPAIQAAVRLAEQLGGGRVVVPATREFYLLGSTIRIRGHHVTLTGPGAR
- soluble fraction (log2): 0.0456

Sequence: HMDRAIAAHLEARVRDALKQLSPEQTRVIELFFFDNKTHAEIENDLKIPLGTVKSRLRLALNKLRASL
- soluble fraction (log2): -2.55

Sequence: HMDRASGEEEALKEAEDAISRVWEFDGPVELNPQNSYLRRLQHELASRYNVKSVSIGQEPNRRVVYYK
- soluble fraction (log2): -0.163

Sequence: HMDRDPAEAGYDDGYLSGNTDGMNNDERATYDESSQYPTPDERQSYAAAYRRGYAAGFADGRKQAV
- soluble fraction (log2): -0.000174

Sequence: HMDREIVEAIVPLEAAGKRFDAALAEMFPEFSRSRLTEWIKAGDALLAGEIVKPKVSVRGGEAVSLSIRV
- soluble fraction (log2): -0.765

Sequence: HMDRELVALVQKALSQLSEQQRRIVELHVMEGMKYLEIADLLQLSENTVRTHLKRAYKILRENH
- soluble fraction (log2): -1.98

Sequence: HMDRERFIKLGREIARAAFENVGKKATDKVLNSAAKKLRLEDGDEVLARLGSAEIEARSVVQAVYPDLI
- soluble fraction (log2): 0.286

Sequence: HMDRKARRKYIEQVVNDRKIETQEELLKLLTEAGFETTQATISRDIHALNIVKANDGDGHTHYVQLH
- soluble fraction (log2): -0.0596

Sequence: HMDRKEEIIIVTLKLASQIGLSNVSMEQIAKQVGIKKPSLYNHFKSKDEIIDAMYEYLREKSKN
- soluble fraction (log2): -2.16

Sequence: HMDRMIPPYGLEVTYDKTTHIIFPSAVRYVDLGSPNLIAGKADGSENVIRVKATRKNFREETNMSVITE
- soluble fraction (log2): 0.152

Sequence: HMDRPEPLYIVNGKEVQTLEEAFELGRTLGSAKKGTQVRLRRLLPEEGVEKYGEKGRNGVFEFMVSA
- soluble fraction (log2): 0.269

Sequence: HMDRPLRTKEHFARFAGEQVVVKTSSPIDGRSSFTGTLEGMEGDDVIVEVDGSRIAIGYSLIKRAHVVG
- soluble fraction (log2): 0.00178

Sequence: HMDRRFFVAEENYKRLDVFLSERMEEFTRSRIKKLIDEGHVELNGKSAKAGAEIRPGDEVAAEIPEVKE
- soluble fraction (log2): 0.195

Sequence: HMDRRIDIANAVKTALGSLPERQKTAIVLVHYEGFSGAETAKLLGISVEAVESLLARARRNLRQTLGP
- soluble fraction (log2): -0.471

Sequence: HMDRTIGEIGLVTETIDSTLESGRVMVDGLSWKARTSDNTVLEAGTRVQVKEIHGVTLTVEKA
- soluble fraction (log2): 0.292

Sequence: HMDRTLTYTVSIEESDLRADQFLSRRGFSSHLLTRLRKNMEHLLINGTPSRTNTHLHEGDILTVHIVEE
- soluble fraction (log2): -2.19

Sequence: HMDRWTPLIVAVLIEGSHRFGELRSAIGGITPKVLTETLRSMERDGLVTRDQVPGVPPRVDYALTPLG
- soluble fraction (log2): -0.462

Sequence: HMDRYVDEEKRFYWRSGEAYLNFSKYKDRSLAEVATVDPGFLRWMMEADFSPETKQIVERALEGEFPQKK
- soluble fraction (log2): -0.29

Sequence: HMDSADADLLRRIEDLLSSRRSVIREARLADMLGVPRDQVARALDLLQERGVIGLTTDSGMKRIAFRRN
- soluble fraction (log2): -0.356

Sequence: HMDSAQLARWAATILAQNGRKITPSTMNLFLERVGDDMENIRMELEKLISYTMGSEVVTAEDVKVITTVQ
- soluble fraction (log2): -1.01

Sequence: HMDSAVLQKHLVKLIELHAPIKARNLAKILADEFGKHVDRSAVNSALYSLKAERKVEVNSSYEWSLD
- soluble fraction (log2): -2.25

Sequence: HMDSDRAARLSSLTPQQFRVLRMVSEGQLNKQIAYQLNISEATVKSHVSAILQKLGVNSRTQAVILATRLD
- soluble fraction (log2): -3.37

Sequence: HMDSEQLSGLVNMGFSVYQAKTALEMFDNDIERAANYL
- soluble fraction (log2): -0.478

Sequence: HMDSERTALLSSDRTSFTAREAALLIGVSQRDIYRMIEDELLDSFTVGKMIRIRRSALEWWLS
- soluble fraction (log2): -2.93

Sequence: HMDSFEEGTYRKNQRGFGFVKIENQEDEIFISKENSLNALNGDRVIVEIIEDKDRTKRAEGKIKKILKHE
- soluble fraction (log2): 0.531

Sequence: HMDSGLLSAREREVAGLVLSGMTYAEIGEAIFISPRTAEHHIARIRRRLGATSRTDLIAKLQAIVGID
- soluble fraction (log2): -3.41

Sequence: HMDSGVPEWLASALRASPVAWKNFLALPPSHQRRYVGWISSARRDETRNRRIAEAISLLVEHKRLG
- soluble fraction (log2): -2.18

Sequence: HMDSIKDQIYQILKEDILTGELRSGEQLVEQTIAARFNTSRSPVREAIKQLTGDGLVINITNKGTFVK
- soluble fraction (log2): 0.227

Sequence: HMDSISEQIYSIIKEEILLAKRKPGEQINPRKLADEFETSVMPIRDALNQLANEGLVIRKPRVGFFVR
- soluble fraction (log2): -0.501

Sequence: HMDSITEADLLRWAHALSGIARTGLGFTESRYERERYEEVLAVAADILAASSRSHDRAALVDEWLKMVGV
- soluble fraction (log2): -2.03

Sequence: HMDSKKNLLGKNGLAFTTLRPAGTVLIDGQRHDVISNGDMIPKGATVRVIAIEGASITVEALPD
- soluble fraction (log2): 0.0814

Sequence: HMDSMATVPDLVGKTEDEAKALANDAHLGVQMAGEEASDQEKGKISRQETAAGTQVAEYTTVKYWVSTGTQ
- soluble fraction (log2): 0.763

Sequence: HMDSPALAIPSSAILRDGLEHIFFRQDPSDPDQVIRVVADLGLSDGRWTVVRSGLERTDQVVLSGA
- soluble fraction (log2): 0.181

Sequence: HMDSQKKNETLSSTADEIIKNYAGKRDLSEESMEQLEQFQKDMRGADVNIFTAAQIRMLDQIFQENLH
- soluble fraction (log2): 0.221

Sequence: HMDSSLVWVDYLLGSKLTKLNSSNELTGPGASAKTIGAFLGENKQSFDLYIESVHNARDTYSDILTHGT
- soluble fraction (log2): -0.186

Sequence: HMDSSSYSAKVGTLIQETRQARGMTQAQLAQALGTSQSAINRIEKGGQNISLDMLNRISEVLSSQIVTLNP
- soluble fraction (log2): -0.0411

Sequence: HMDSVAKSFLAEIERFLETAGLEPTTLGKQALGDPSFVFDLRKGRSPSTRTIGKLRVWMQQQNALS
- soluble fraction (log2): -1.34

Sequence: HMDSVTLGISFNGKTRFTLDFPADAAAADIEKAALEAEQSQRYLEGMTVAKVIVVPGRIVNIVLK
- soluble fraction (log2): -2.23

Sequence: HMDSVTMYATTGVNVRSGPSTSYSIVGGLDRGDKVTRIGTSGNWTKVVWGNGSAYVFSKYLQTGY
- soluble fraction (log2): -3.04

Sequence: HMDTAEQNWRLRGKLVTLGLNARQIRMALASHAPRYLEDNIAVVERDLAAGKVRNLPAYLLAALREDYRP
- soluble fraction (log2): -1.86

Sequence: HMDTEIGDILALRQIMELLDEKDRQLIIMRYFQGLTQSVTAKNLNMTQVQVSRREKKLLTFMREQLL
- soluble fraction (log2): -0.702

Sequence: HMDTEVVMINVVGMNIDKAKNSLNHKNILYKISYQDVSEGENNVVLKQSISSNTKIKKGQVVSLVVGKLN
- soluble fraction (log2): -1.42

Sequence: HMDTFEITVEESDIDKRIDLFLAGNLESFSRSYIQDLIKKGKATISGKPVKANYRLREGDSVVLSIPKPK
- soluble fraction (log2): -0.209

Sequence: HMDTGKLQSLVGSRGVAHTVLRPSGKVMIGDDVYPAVAETGFIPRGTAIVVRREEQGQLYVVEARK
- soluble fraction (log2): -0.318

Sequence: HMDTGPISGQVEADRVEVHGHLDGKISAQNVVVGQTGVVKGDIEFGENLRTEEGADIEGYIK
- soluble fraction (log2): 0.0611

Sequence: HMDTGPSFATRRQEAFNALTQIAASNKEFMNVAGDVLWKVADFPEAQILAQRWRRIIPPNVLGEA
- soluble fraction (log2): -0.465

Sequence: HMDTIAEFIAELTPLEQKVFHVYYEKGQSLKDTAQQAEITSTSARGALDRIRAKGRHFHLAVILFIG
- soluble fraction (log2): -0.7

Sequence: HMDTINEYERNILSLITSKPGISAVQIAADTDKSIITAKRGIKTLVDGKLIEYRGSKKTGGYFLLTQS
- soluble fraction (log2): -0.41

Sequence: HMDTIYMVVAKNIKYYRLIKSMSKKDLAEAVNVTPMAISNYENGKRKPEIDILKKIANVLGVRVVDFLTVR
- soluble fraction (log2): -4.45

Sequence: HMDTKLFNYGVGKHAYISWNEGGKRTAYIGFGNDGADVLTINNVKQGGSLGIYKDKITLNSQTVLTD
- soluble fraction (log2): -0.038

Sequence: HMDTLHGRILEEFSRKIVDGTWPPGFSLPKETELADQYGVSRMTMNKVLTRLASDGFVIRRKRSGTVVAQP
- soluble fraction (log2): -1.34

Sequence: HMDTLTRAMVWTIIARAEGVDTTGGATWYAKAQEWVTAKGISDGENPNAAITRQELVTMLYRLAGEPAV
- soluble fraction (log2): -3.56

Sequence: HMDTMQQESMDTKSILATALMELTSRKNFAKITIADITHVSGFNRQTFYYHFRDKYELLSWIY
- soluble fraction (log2): -0.0387

Sequence: HMDTNRIIGNKIYQLRRSINMTQQELAEKVGISVTFLSEIENGRKSMSVDTLIKLSKGLQVSLDTIVF
- soluble fraction (log2): -4.31

Sequence: HMDTPVYYYVNGNGVRMRKDASLESDILILLYKGTKVEYVDVKGEWIKVKYNNEIGYIRNDLLSAEMPD
- soluble fraction (log2): -0.784

Sequence: HMDTQITPNKAKEIALAHAGVTEAAANFKKIKLDNKNGKSIYEIEFIANKSRYEFIVDAKNGSIIKFEK
- soluble fraction (log2): -0.378

Sequence: HMDTRKEREIALYEAALRLIASGVNPAAMKVQQIADEAGIGKGTVYEYFASKEEILHGMALH
- soluble fraction (log2): -0.218

Sequence: HMDTTLFGLFQNVILTQEDYEELSRTIVEDLDGLIDRLSAYMTSTGKTYKNHKATLLSWYLQDEKKFK
- soluble fraction (log2): -1.78

Sequence: HMDTVEALTEQLKKLDKRGEGQIPAPEFKQYMMNMGGKMTAEELDEMMKVADPGKEGVVNIAEFADAL
- soluble fraction (log2): 0.313
